Measurements reported in paper PMC2566879.
pKd: −log10 of the molar value.

Assays:
[1] = molecular target: histone H1 coupled to the SPR sensor chip (UniProt P02253); test: SPR
[2] = molecular target: histone H3/H4 tetramer coupled to the SPR sensor chip (UniProt P84229); test: SPR

Sequence of UniProt P02253 (P02253 whole entry): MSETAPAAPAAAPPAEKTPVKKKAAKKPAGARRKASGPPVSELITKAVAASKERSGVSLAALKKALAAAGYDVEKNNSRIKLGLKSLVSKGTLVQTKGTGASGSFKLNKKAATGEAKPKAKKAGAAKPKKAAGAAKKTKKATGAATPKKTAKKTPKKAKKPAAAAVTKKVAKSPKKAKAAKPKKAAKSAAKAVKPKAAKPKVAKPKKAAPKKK

With “recombinant human somatic NASP (nuclear autoantigenic sperm protein), NH2-terminal 6His tag (from UniProt P49321-2 1-449) (natural protein)” the pKd [1] was 7.86, the koff [1] was 0.000198 s⁻¹ and the kon [1] was 14400 M⁻¹ s⁻¹. For the same substance, the pKd [2] was 6.63, the koff [2] was 0.000691 s⁻¹ and the kon [2] was 2920 M⁻¹ s⁻¹.
